Positions count from the first letter of the chain named.
B1: DARPin #41 (designed binder)
chain: MRGSHHHHHHGSDLGAKLLSDLGVKLLWAAARGQDDEVRILLAAGADVNAKDFQGITPLHIAAQSGHLEIVEVLLKAGADVNAKDVTGDTPLHLAAQHGHLVIVEVLLKAGADVNAQDERGWTPADLAADWGHEDIAEVLQKLGGGGSGGGGSRSDLGKKLLEAARAGQDDEVRILMANGADVNAKDEYGLTPLYLATAHGHLEIVEVLLKNGADVNAVDAIGFTPLHLAAFIGHLEIAEVLLKHGADVNAQDKFGKTAFDISIGNGNEDLAEILQKLN
B2: DARPin #7 (designed binder)
chain: MRGSHHHHHHGSDLGIKLLFAAAKGQDDEVRILLAAGADVNAKDFEGYTPLHVAAYDGHLEIVEVLLKAGADVNAKDSQGRTPLHEAAYSGHLEIVEVLLKAGADVNAQDDAGETPADLAAAWGHEDIAEVLQKLN
notes: monovalent
B3: DARPin #19 (designed binder)
chain: MRGSHHHHHHGSDLGKKLLEAARAGQDDEVRELLKAGADVNAKDEYGLTPLYLATAHGHLEIVEVLLKNGADVNAVDAIGFTPLHLAAFIGHLEIAEVLLKHGADVNAQDKSGKTPADLAAGAGHEDIAEVLQKLN
notes: monovalent
B4: DARPin #20 (designed binder)
chain: B3 chain with N69A, H102A, S112F, L119I, H125N
notes: monovalent
B5: DARPin #5 (designed binder)
chain: MRGSHHHHHHGSDLGVKLLWAAARGQDDEVRILLAAGADVNAKDFQGITPLHIAATNGHLEIVEVLLKAGADVNAKDITGETPLHHAADSGHLEIVEVLLKAGADVNAQDKAGVTPADLAAAWGHEDIAEVLQKLN
notes: monovalent
B6: DARPin #12 (designed binder)
chain: MRGSHHHHHHGSDLGKKLLEAARAGQDDEVRILMANGADVNAKDFYGITPLHLAAAYGHLEIVEVLLKHGADVNAHDWNGWTPLHLAAKYGHLEIVEVLLKHGADVNAIDNAGKTPLHLAAAHGHLEIVEVLLKYGADVNAQDKFGKTAFDISIDNGNEDLAEILQKLN
notes: monovalent
B7: DARPin #16 (designed binder)
chain: MRGSHHHHHHGSDLGIKLLQAANLGQDDEVRELLKAGADVNAKDSIGQTPLHWAARRGHLEIVEVLLKAGADVNAKDEYGVTPLHLAASLGHLEIVEVLLKAGADVNAQDESGETPADLAALHGHEDIAEVLQKLN
notes: monovalent
B8: DARPin #17 (designed binder)
chain: B7 chain with I16L, E32I, K35A, E111T, S112A, E114Q, L122D, H123D, E130V
notes: monovalent
B9: DARPin #21 (designed binder)
chain: MRGSHHHHHHGSDLGKKLLEAARAGQDDEVRILMANGADVNATDIHGHTPLHLAAAMGHLEIVEVLLKNGADVNANDWRGFTPLHLAALNGHLEIVEVLLKNGADVNATDTAGNTPLHLAAWFGHLEIVEVLLKNGADVNAQDKFGKTAFDISIDNGNEDLAEILQKLN
notes: monovalent
B10: DARPin #18 (designed binder)
chain: MRGSHHHHHHGSDLGKKLLEAARAGQDDEVRILMANGADVNAKDEYGLTPLYLATAHGHLEIVEVLLKNGADVNAVDAIGFTPLHLAAFIGHLEIAEVLLKHGADVNAQDKFGKTAFDISIGNGNEDLAEILQKLN
notes: monovalent
B11: DARPin #51 (designed binder)
chain: MRGSHHHHHHGSDLGNKLLIAASVGQDDEVRILLAAGADVNAKDETGWTPLHLAAAWGHLEIVEVLLKAGADVNAKDVKGQTPLHLAAAYGHLEIVEVLLKAGADVNAQDNDGYTPADLAARYGHEDIAEVLQKLN
notes: monovalent
B12: DARPin #8 (designed binder)
chain: MRGSHHHHHHGSDLGIKLLWAAAHGQDDEVRILLAADADVNAKDWYGTTPLHIAAVAGHLEIVEVLLKAGADVNAKDDFGTTPLHLAAYHGHLEIVEVLLKAGADVNAQDWQGQTPADLAAQDGHEDIAEVLQKLN
notes: monovalent
B13: DARPin #52 (designed binder)
chain: B12 chain with I16V, L86A, Y89D, H90Y, W111Y, Q112T, Q114H, Q122V, D123Y, E130A
notes: monovalent
B14: DARPin #53 (designed binder)
chain: MRGSHHHHHHGSDLGAKLLWAAAKGQDDEVRILLAAGADVNAKDWEGVTPLHIAAHAGHLEIVEVLLKAGADVNAKDIIGWTPLHSAAVYGHLEIVEVLLKAGADVNAQDWYGTTPADLAAWWGHEDIAVVLQKLN
notes: monovalent
B15: DARPin #14 (designed binder)
chain: MRGSHHHHHHGSDLGAKLLIAATVGQDDEVRILLAAGADVNAKDTIGHTPLHRAAFVGQLEIVEVLLKAGADVNAQDDYGWTPADLAANSGHEDIAEVLQKLN
notes: monovalent
B16: DARPin #15 (designed binder)
chain: B15 chain with I20V, V24S, T45R, H48F, Q59H, Y79F, W81H, N89S, S90L
notes: monovalent
B17: DARPin #9 (designed binder)
chain: MRGSHHHHHHGSDLGHKLLEAAVAGQDDEVRILLAAGADVNAKDWYGKTPLHFAAGLGHLEIVEVLLKAGADVNAKDEDGQTPLHLAAAYGHLEIVEVLLKAGADVNAQDNDGFTPADLAADSGHEDIAEVLQKLN
notes: monovalent
B18: DARPin #50 (designed binder)
chain: MRGSHHHHHHGSDLGKKLLEAARAGQDDEVRILMANGADVNAKDKDGYTPLHLAAREGHLEIVEVLLKAGADVNAKDKDGYTPLHLAAREGHLEIVEVLLKAGADVNAQDKFGKTAFDISIDNGNEDLAEILQKLN
notes: also called negative control ankyrin repeat domain

These binders were tested against T1, Human HER2 expressed on tumour cells (human, UniProt P04626 23-1255) (assay: cell-based or functional assay).

IC50, inhibition of BT474 proliferation (single experiment of FIG. 2A) [nM]	Binder
~2	B1

Molecular target: T1, Human HER2 expressed on tumour cells
Assay: cell-based or functional assay
Remark: another data set of the same source

% activity vs. DARPin # 41, BT474 cell proliferation [%]	IC50 [nM], inhibition of BT474 cell proliferation (BrdU) [nM]	Binder
100	4.01	B1

These binders were tested against T2, Recombinant human HER2 ectodomain (human, UniProt P04626 23-652, biotinylated on primary amines (for SPR and crude extract ELISA)) (assay: SPR (ProteOn); biotinylated human HER2 on neutravidin chip, monovalent DARPin injected).
T2 construct: extracellular domain; also called ErbB2; ectodomain of human HER2; not shown: Flag tag
Method: Protein binding kinetics of interesting purified HER2-binding DARPins were assayed by Surface Plasmon Resonance (SPR) analysis with a ProteOn array system (BioRad) using a setup, where biotinylated human HER2 was immobilized via neutravidin and the interaction was measured by adding free monovalent DARPin. The determination of Kd values was performed according to standard procedures.
SPR was measured using a ProteOn instrument (BioRad) and measurement was performed according standard procedures known to the person skilled in the art. The running buffer was PBS, pH 7.4, containing 0.005% Tween 20®. Neutravidin was covalently immobilized on a GLC chip (BioRad) to a level of about 8000 resonance units (RU). Immobilization of HER2 on the neutravidin coated chip was then performed. […] The signals (i.e. resonance unit (RU) values) of an uncoated reference cell and a reference injection (i.e. injection of running buffer only) were subtracted from the RU traces obtained after injection of […] (double-referencing). From the SRP traces obtained from the on-rate and off-rate measurements the on- and off-rate of the corresponding DARPin HER2 interaction can be determined.
Dissociation constants (Kd) were calculated from the estimated on- and off-rates using standard procedures known to the person skilled in the art.

Kd [nM]	Binder
1.03	B2
0.944	B3
0.258	B4
0.0708	B5
1.41	B6
2.67	B7
2.3	B8
1.65	B9
0.335	B10
1.3	B11
0.483	B12
0.137	B13
1.46	B14
1.88	B15
0.468	B16
0.417	B17

Each binder was assayed against T2, Recombinant human HER2 ectodomain (assay: ELISA on plate-coated full length HER2 (domain I-IV), detection by anti-RGS-His antibody; with and without 500 nM soluble HER2 domain I or domain I-III).
Method: The DARPins (20 nM) were preincubated with HER2 domain I, domain I-III or domain III-IV (in each case at a domain concentration of 500 nM) in PBS for 45 min at room temperature. […] Bound DARPins were specifically detected using a monoclonal mouse anti RGS-His antibody (Qiagen Cat.34650) as primary antibody and an anti-mouse antibody labeled with horse radish peroxidase (Pierce, Cat.31438) as secondary antibody.
The read out was made at 450 nm.

Binder	binding result
B18	no binding (tested: 20 nM (not printed on the sheet))

— patent US20150299265A1 (Molecular Partners, published 2015)
